Source: PMC7367873, “Dissecting the sequence determinants for dephosphorylation by the catalytic subunits of phosphatases PP1 and PP2A” (Nature Communications, 2020)

B1: TRAM1 (protein, UniProt Q15629 1-374, looked up)
Translocating …: MAIRKKSTKSPPVLSHEFVLQNHADIVSCVAMVFLLGLMFEITAKASIIFVTLQYNVTLPATEEQATESVSLYYYGIKDLATVFFYMLVAIIIHAVIQEYMLDKINRRMHFSKTKHSKFNESGQLSAFYLFACVWGTFILISENYISDPTILWRAYPHNLMTFQMKFFYISQLAYWLHAFPELYFQKTKKEDIPRQLVYIGLYLFHIAGAYLLNLNHLGLVLLVLHYFVEFLFHISRLFYFSNEKYQKGFSLWAVLFVLGRLLTLILSVLTVGFGLARAENQKLDFSTGNFNVLAVRIAVLASICVTQAFMMWKFINFQLRRWREHSAFQAPAVKKKPTVTKGRSSKKGTENGVNGTLTSNVADSPRNKKEKSS
B2: NCKAP1 (protein, UniProt Q9Y2A7 2-1128, looked up)
Nck-associated protein 1: SRSVLQPSQQKLAEKLTILNDRGVGMLTRLYNIKKACGDPKAKPSYLIDKNLESAVKFIVRKFPAVETRNNNQQLAQLQKEKSEILKNLALYYFTFVDVMEFKDHVCELLNTIDVCQVFFDITVNFDLTKNYLDLIITYTTLMILLSRIEERKAIIGLYNYAHEMTHGASDREYPRLGQMIVDYENPLKKMMEEFVPHSKSLSDALISLQMVYPRRNLSADQWRNAQLLSLISAPSTMLNPAQSDTMPCEYLSLDAMEKWIIFGFILCHGILNTDATALNLWKLALQSSSCLSLFRDEVFHIHKAAEDLFVNIRGYNKRINDIRECKEAAVSHAGSMHRERRKFLRSALKELATVLSDQPGLLGPKALFVFMALSFARDEIIWLLRHADNMPKKSADDFIDKHIAELIFYMEELRAHVRKYGPVMQRYYVQYLSGFDAVVLNELVQNLSVCPEDESIIMSSFVNTMTSLSVKQVEDGEVFDFRGMRLDWFRLQAYTSVSKASLGLADHRELGKMMNTIIFHTKMVDSLVEMLVETSDLSIFCFYSRAFEKMFQQCLELPSQSRYSIAFPLLCTHFMSCTHELCPEERHHIGDRSLSLCNMFLDEMAKQARNLITDICTEQCTLSDQLLPKHCAKTISQAVNKKSKKQTGKKGEPEREKPGVESMRKNRLVVTNLDKLHTALSELCFSINYVPNMVVWEHTFTPREYLTSHLEIRFTKSIVGMTMYNQATQEIAKPSELLTSVRAYMTVLQSIENYVQIDITRVFNNVLLQQTQHLDSHGEPTITSLYTNWYLETLLRQVSNGHIAYFPAMKAFVNLPTENELTFNAEEYSDISEMRSLSELLGPYGMKFLSESLMWHISSQVAELKKLVVENVDVLTQMRTSFDKPDQMAALFKRLSSVDSVLKRMTIIGVILSFRSLAQEALRDVLSYHIPFLVSSIEDFKDHIPRETDMKVAMNVYELSSAAGLPCEIDPALVVALSSQKSENISPEEEYKIACLLMVFVAVSLPTLASNVMSQYSPAIEGHCNNIHCLAKAINQIAAALFTIHKGSIEDRLKEFLALASSSLLKIGQETDKTTTRNRESVYLLLDMIVQESPFLTMDLLESCFPYVLLRNAYHAVYKQSVTSSA
B3: USP8 (protein, UniProt P40818 1-1118, looked up)
Ubiquitin carboxyl-terminal …: MPAVASVPKELYLSSSLKDLNKKTEVKPEKISTKSYVHSALKIFKTAEECRLDRDEERAYVLYMKYVTVYNLIKKRPDFKQQQDYFHSILGPGNIKKAVEEAERLSESLKLRYEEAEVRKKLEEKDRQEEAQRLQQKRQETGREDGGTLAKGSLENVLDSKDKTQKSNGEKNEKCETKEKGAITAKELYTMMTDKNISLIIMDARRMQDYQDSCILHSLSVPEEAISPGVTASWIEAHLPDDSKDTWKKRGNVEYVVLLDWFSSAKDLQIGTTLRSLKDALFKWESKTVLRNEPLVLEGGYENWLLCYPQYTTNAKVTPPPRRQNEEVSISLDFTYPSLEESIPSKPAAQTPPASIEVDENIELISGQNERMGPLNISTPVEPVAASKSDVSPIIQPVPSIKNVPQIDRTKKPAVKLPEEHRIKSESTNHEQQSPQSGKVIPDRSTKPVVFSPTLMLTDEEKARIHAETALLMEKNKQEKELRERQQEEQKEKLRKEEQEQKAKKKQEAEENEITEKQQKAKEEMEKKESEQAKKEDKETSAKRGKEITGVKRQSKSEHETSDAKKSVEDRGKRCPTPEIQKKSTGDVPHTSVTGDSGSGKPFKIKGQPESGILRTGTFREDTDDTERNKAQREPLTRARSEEMGRIVPGLPSGWAKFLDPITGTFRYYHSPTNTVHMYPPEMAPSSAPPSTPPTHKAKPQIPAERDREPSKLKRSYSSPDITQAIQEEEKRKPTVTPTVNRENKPTCYPKAEISRLSASQIRNLNPVFGGSGPALTGLRNLGNTCYMNSILQCLCNAPHLADYFNRNCYQDDINRSNLLGHKGEVAEEFGIIMKALWTGQYRYISPKDFKITIGKINDQFAGYSQQDSQELLLFLMDGLHEDLNKADNRKRYKEENNDHLDDFKAAEHAWQKHKQLNESIIVALFQGQFKSTVQCLTCHKKSRTFEAFMYLSLPLASTSKCTLQDCLRLFSKEEKLTDNNRFYCSHCRARRDSLKKIEIWKLPPVLLVHLKRFSYDGRWKQKLQTSVDFPLENLDLSQYVIGPKNNLKKYNLFSVSNHYGGLDGGHYTAYCKNAARQRWFKFDDHEVSDISVSSVKSSAAYILFYTSLGPRVTDVAT
B4: RAE1 (protein, UniProt P78406 1-368, looked up)
mRNA export factor RAE1: MSLFGTTSGFGTSGTSMFGSATTDNHNPMKDIEVTSSPDDSIGCLSFSPPTLPGNFLIAGSWANDVRCWEVQDSGQTIPKAQQMHTGPVLDVCWSDDGSKVFTASCDKTAKMWDLSSNQAIQIAQHDAPVKTIHWIKAPNYSCVMTGSWDKTLKFWDTRSSNPMMVLQLPERCYCADVIYPMAVVATAERGLIVYQLENQPSEFRRIESPLKHQHRCVAIFKDKQNKPTGFALGSIEGRVAIHYINPPNPAKDNFTFKCHRSNGTNTSAPQDIYAVNGIAFHPVHGTLATVGSDGRFSFWDKDARTKLKTSEQLDQPISACCFNHNGNIFAYASSYDWSKGHEFYNPQKKNYIFLRNAAEELKPRNKK
B5: EDC3 (protein, UniProt Q96F86 1-508, looked up)
Enhancer of mRNA-decapping …: MATDWLGSIVSINCGDSLGVYQGRVSAVDQVSQTISLTRPFHNGVKCLVPEVTFRAGDITELKILEIPGPGDNQHFGDLHQTELGPSGAGCQVGINQNGTGKFVKKPASSSSAPQNIPKRTDVKSQDVAVSPQQQQCSKSYVDRHMESLSQSKSFRRRHNSWSSSSRHPNQATPKKSGLKNGQMKNKDDECFGDDIEEIPDTDFDFEGNLALFDKAAVFEEIDTYERRSGTRSRGIPNERPTRYRHDENILESEPIVYRRIIVPHNVSKEFCTDSGLVVPSISYELHKKLLSVAEKHGLTLERRLEMTGVCASQMALTLLGGPNRLNPKNVHQRPTVALLCGPHVKGAQGISCGRHLANHDVQVILFLPNFVKMLESITNELSLFSKTQGQQVSSLKDLPTSPVDLVINCLDCPENVFLRDQPWYKAAVAWANQNRAPVLSIDPPVHEVEQGIDAKWSLALGLPLPLGEHAGRIYLCDIGIPQQVFQEVGINYHSPFGCKFVIPLHSA
B6: GLCCI1 (protein, UniProt Q86VQ1 1-547, looked up)
Glucocorticoid-induced …: MSTASSSSSSSSSQTPHPPSQRMRRSAAGSPPAVAAAGSGNGAGGGGGVGCAPAAGAGRLLQPIRATVPYQLLRGSQHSPTRPPVAAAAASLGSLPGPGAARGPSPSSPTPPAAAAPAEQAPRAKGRPRRSPESHRRSSSPERRSPGSPVCRADKAKSQQVRTSSTIRRTSSLDTITGPYLTGQWPRDPHVHYPSCMKDKATQTPSCWAEEGAEKRSHQRSASWGSADQLKEQIAKLRQQLQRSKQSSRHSKEKDRQSPLHGNHITISHTQATGSRSVPMPLSNISVPKSSVSRVPCNVEGISPELEKVFIKENNGKEEVSKPLDIPDGRRAPLPAHYRSSSTRSIDTQTPSVQERSSSCSSHSPCVSPFCPPESQDGSPCSTEDLLYDRDKDSGSSSPLPKYASSPKPNNSYMFKREPPEGCERVKVFEEMASRQPISAPLFSCPDKNKVNFIPTGSAFCPVKLLGPLLPASDLMLKNSPNSGQSSALATLTVEQLSSRVSFTSLSDDTSTAGSMEASVQQPSQQQQLLQELQGEDHISAQNYVII

What follows are molecules tested on GFP-14-3-3β and its binding proteins (assay: GFP-14-3-3β co-IP with LC-MS/MS label-free quantification, untreated versus PP1c-treated). Settings: log2 difference; pairwise comparison PP1 vs untreated, label-free quantification, 3 replicates each.
Parameters: species or system human

Molecule | Difference (log2), PP1 vs untreated
B1 | 1.521

Same assay, conditions: pairwise comparison PP1 vs untreated, student's t-test; 3 replicates each; LC-MS/MS label-free quantification

Molecule | Difference (log2), PP1 vs untreated [log2]
B2 | -3.667
B3 | -3.991
B4 | -4.214
B5 | -4.243
B6 | -4.246

The molecules below were run on GFP-14-3-3β (assay: GFP-14-3-3β co-IP with LC-MS/MS, untreated GFP-14-3-3β versus GFP control (14-3-3 interactome)). Settings: log2 difference; pairwise comparison untreated vs GFP, label-free quantification, 3 replicates each.
Format: binding, human

Molecule | Difference (log2), untreated vs GFP
B1 | 0.1201

Same assay, conditions: pairwise comparison untreated GFP-14-3-3β vs GFP, student's t-test; 3 replicates each; LC-MS/MS label-free quantification

Molecule | Difference (log2), untreated vs GFP [log2]
B2 | 2.589
B3 | 6.726
B4 | 3.4084
B5 | 4.9273
B6 | 4.69
